These are literature values, as cited in publication PMC6601554.

One may read the Kd as the concentration at which binding is half-saturated.

The data set concerns the target Mouse neonatal Fc receptor (FcRn) (UniProt Q61559). The experiment in a line: not stated in this article.
Sequence of UniProt Q61559 (Q61559 whole entry): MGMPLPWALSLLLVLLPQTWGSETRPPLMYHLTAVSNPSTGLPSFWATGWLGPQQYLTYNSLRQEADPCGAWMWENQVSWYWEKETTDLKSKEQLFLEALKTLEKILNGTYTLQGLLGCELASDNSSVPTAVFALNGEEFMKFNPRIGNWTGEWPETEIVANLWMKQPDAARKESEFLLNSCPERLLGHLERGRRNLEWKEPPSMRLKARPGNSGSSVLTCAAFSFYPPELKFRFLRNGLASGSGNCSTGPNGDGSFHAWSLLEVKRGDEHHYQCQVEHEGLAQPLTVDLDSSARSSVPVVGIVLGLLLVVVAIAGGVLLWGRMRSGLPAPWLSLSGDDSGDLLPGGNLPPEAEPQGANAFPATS

As for “MST-HN human IgG1 (Abdeg; mutated humanized anti-hen egg lysozyme HuLys10) M252Y;S254T;T256E;H433K;N434F”, the Kd (pH 6.0) is given as 1.2 nM and the Kd (pH 7.2) is 7.4 nM.
